In paper PMC10250230, “Negatively charged, intrinsically disordered regions can accelerate target search by DNA-binding proteins”:

B1: unlabeled cisplatin-modified DNA (dsDNA)
DNA 1: CTCTGGACCTTCCTTTCTTC
DNA 2: GAAGAAAGGAAGGTCCAGAG
modifications: cisplatin adduct

What was measured:
[1] = molecular target: Antp HD (control without DERT; Antp HD-MID) (UniProt P02833); experiment: fluorescence anisotropy; settings: pH 5.8, 200 mM KCl, Antp Kd: 20 mM potassium succinate pH 5.8, 0.4 mM NaF, HMGB1: 10 mM K phosphate pH 7.5, 1 mM DTT, 1 mM MgCl2, 100 mM KCl, 25 C, Antp stopped-flow: …
Sequence of Antp HD (control without DERT; Antp HD-MID) (P02833 whole entry): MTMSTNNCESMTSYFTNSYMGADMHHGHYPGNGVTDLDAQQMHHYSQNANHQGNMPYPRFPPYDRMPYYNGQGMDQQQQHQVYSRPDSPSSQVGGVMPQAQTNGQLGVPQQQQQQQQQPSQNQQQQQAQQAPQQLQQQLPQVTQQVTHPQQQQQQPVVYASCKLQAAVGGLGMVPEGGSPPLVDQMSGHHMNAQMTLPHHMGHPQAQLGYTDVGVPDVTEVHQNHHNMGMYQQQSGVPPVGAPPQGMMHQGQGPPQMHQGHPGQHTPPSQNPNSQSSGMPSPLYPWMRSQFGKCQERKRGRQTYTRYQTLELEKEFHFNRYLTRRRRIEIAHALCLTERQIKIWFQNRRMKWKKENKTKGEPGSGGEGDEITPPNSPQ

[2] = molecular target: Antp HD-DERT11 (UniProt P02833); experiment: fluorescence anisotropy; settings: pH 5.8, 200 mM KCl, Antp Kd: 20 mM potassium succinate pH 5.8, 0.4 mM NaF, HMGB1: 10 mM K phosphate pH 7.5, 1 mM DTT, 1 mM MgCl2, 100 mM KCl, 25 C, Antp stopped-flow: …
Sequence of Antp HD-DERT11 (P02833 whole entry): as above

[3] = molecular target: Antp HD-DERT16 (UniProt P02833); experiment: fluorescence anisotropy; settings: pH 5.8, 200 mM KCl, Antp Kd: 20 mM potassium succinate pH 5.8, 0.4 mM NaF, HMGB1: 10 mM K phosphate pH 7.5, 1 mM DTT, 1 mM MgCl2, 100 mM KCl, 25 C, Antp stopped-flow: …
Sequence of Antp HD-DERT16 (P02833 whole entry): as above

[4] = molecular target: Antp HD-DERT7 (UniProt P02833); experiment: fluorescence anisotropy; settings: pH 5.8, 200 mM KCl, Antp Kd: 20 mM potassium succinate pH 5.8, 0.4 mM NaF, HMGB1: 10 mM K phosphate pH 7.5, 1 mM DTT, 1 mM MgCl2, 100 mM KCl, 25 C, Antp stopped-flow: …
Sequence of Antp HD-DERT7 (P02833 whole entry): as above

[5] = molecular target: HMGB1 full-length (human, UniProt P09429 1-215); experiment: competition (fluorescence anisotropy); 10 mM K phosphate pH 7.5, 1 mM DTT, 1 mM MgCl2, 100 mM KCl, 25 C; apparent Kd; Antp Kd: 20 mM potassium succinate pH 5.8, 0.4 mM NaF, 200 mM KCl; HMGB1: 10 mM K phosphate pH 7.5, 1 mM DTT, 1 mM MgCl2, 100 mM KCl, 25 C; Antp stopped-flow: 1; settings: protein: recombinant
Sequence of HMGB1 full-length (P09429 whole entry): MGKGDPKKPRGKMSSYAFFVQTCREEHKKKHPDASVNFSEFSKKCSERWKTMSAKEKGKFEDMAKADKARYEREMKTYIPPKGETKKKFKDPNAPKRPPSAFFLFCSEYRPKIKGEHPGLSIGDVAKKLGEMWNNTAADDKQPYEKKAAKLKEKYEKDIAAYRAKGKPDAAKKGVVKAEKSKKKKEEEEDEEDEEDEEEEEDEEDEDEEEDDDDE

Row | Molecule | Kd [1] | Kd [2] | Kd [3] | Kd [4] | Kd [5]
1 | TAMRA-labeled 15-bp Antp recognition DNA | 2.6 nM | 69 nM | 61 nM | 19 nM | –
2 | B1 | – | – | – | – | 17 ± 3 nM
